The results in this text go back to the DeepSol protein solubility set.

This data set is described as follows: soluble on expression in E. coli; label from the status in PepcDB or PDB records.
Take “DNSSFDSLSPEPKSRFAMLDDVKILANGLLQLGHGLKDFVHKTKGQINDIFQKLNIFDQSFYDLSLQTSEIKEEEKELRRTTYKLQVKNEEVKNMSLELNSKLESLLEEKILLQQKVKYLEEQLTNLIQNQPETPEHPEVTSLKTFVEKQDNSIKDLLQTVEDQYKQLNQQHSQIKEIENQLRRTSIQEPTEISLSSKPRAPRTTPFLQLNEIRNVKHDGIPAECTTIYNRGEHTSGMYAIRPSNSQVFHVYCDVISGSPWTLIQHRIDGSQNFNETWENYKYGFGRLDGEFWLGLEKIYSIVKQSNYVLRIELEDWKDNKHYIEYSFYLGNHETNYTLHLVAITGNVPNAIPENKDLVFSTWDHKAKGHFNCPEGYSGGWWWHDECGENNLNGKYNKPRAKSKPERRRGLSWKSQNGRLYSIKSTKMLIHPTDSESFE”: the “soluble on expression in E. coli” value is “not soluble”.
Next, “GHMSRRSFKNRVLAFFKGYPSFYYPATLVAPVHSAVTSSIMYKVQFDDATMSTVNSNQIKRFFLKKGDVVQSTRLGKIKHTVVKTFRSTNEQLSLIAVDALNNDMVILAHGEIEVTVPISTIYVAPVNIRRFQGRDLSFSTLKDMKFEETSFL”: “soluble”; “GSDDNKTTGATYDPNQPVTVESFMPVEGKLREKVIVKGSNFGTDKSKVKVYFVDEAAERLSTVIGIDNNTLYCLAPRQLPGGNRIKVIVDGKEVTTDGTFKYEQAQNVSTISGSASKDGNDDGDLASAKFKYMWGIAAVGNNTVLAYQRDDPRVRLISVDDNKVTTVHPGFKGGKPAVTKDKQRVYSIGWEGTHTVYVYMKASGWAPTRIGQLGSTFSGKIGAVALDETEEWLYFVDSNKNFGRFNVKTQEVTLIKQLELSGSLGTNPGPYLIYYFVDSNFYMSDQNLSSVYKITPDGECEWFCGSATQKTVQDGLREEALFAQPNGMTVDEDGNFYIVDGFKGYCLRKLDILDGYVSTVAGQVDVASQIDGTPLEATFNYPYDICYDGEGGYWIAEAWGKAIRKYAVE”: “soluble”.
With “MSKPDDPAYHWNGAELDLDAYLARIGFAGERAPTLATLRELVYRHTTAIPFENLEAVLGRPVRLDLATLQDKLVHSRRGGYCYENAGLFAAALERLGFGVTGHTGRVTMGAGGLRPATHALLRVTTADDDRVWMCDVGFGRGPLRPYELRPQPDEFTLGDWRFRLERRTGELGTDLWVLHQFGRDGWVDRYTFTTAPQYRIDFEVGNHFVSTSPRSPFTTRPFLQRFHSDRHHVLDGLTLITERPDGSADIRALTPGELPEVINELFDIELPGPDLDALTTGSWLERVAAGTP”, the “soluble on expression in E. coli” value is “soluble”.
Next, “GRFSDELVEACAEMVRQRWNPHPEPTWVCCVPSLRHLDLVPDFARRLAAKLGLPFIDAIEKVVDNPPQKMQQNRFHQCQNLDGAFVITPPLMPGPALLVDDIVDSAWTLTVLTALLRQAGCPTVYPLALASTSVK”: “not soluble”; “MGHHHHHHSHYPPIEFDKYKCKNSEDFYLFVGRLWHEKRPEEAIRGCIKAKKKIVVIGSGYLEKYLRDKYGKNPYVEIKGFVSEEEKVDLLASCKAVIYPCIAEDFGIVPIEAFASGKPVIADNSGFPPYVVNEERGIITDCSNPDNIAKAIEELEKKKYDPDKIREFAKQF”: “soluble”; “MATLLFFSKPISDFVLGDKVGFDAKILESNDRILLIKPLQIGVDSNISVIDNEGKIFSFYVFSTTFTSSKHPNLQVFIEDKNYYSNAFLKPQKENMAENAPKDAPTNNKPLKEEKEETKEKEEETITIGDNTNAMKIVKKDIQKGYKALKSSQRKWYCLGICSKKSKLSLMPKEIFNDKQFTYFKFDKRLALSKFPVIYKVVDGYDNPVNTRIVGDYIIAEDVSAKWTLRLGKDYLCIRFVKKAKDE”: “not soluble”.
Next, “MLWTDCLTRLRQELSDNVFAMWIRPLVAEETTDSLRLYAPNPYWTRYIQEHHLELISILVEQLSEGRIRQVEILVDSRPGAILSPAEQPATTTAALSSTPVVPQRVKKEVVEPAATQSNKILNSKKRLLNPLFTFSLFVEGRSNQMAAETCRKVLTQLGASQHNPLFLYGPTGLGKTHLMQAVGNALLQAKPNARVMYMTAESFVQDFVSSLQKGKVEEFKKNCRSLDLLLVDDIHLLAGKEASLVEFFYTFNALLDESKQIILTSDRYPKELTELDPRLVSRFSWGLSVGVEPPDIETRIEILLKKAENSGVDLPRNCALFIAQQVVANVRELEGALNKVVAIARFKGSQIDLDVVRESLKDVLAIRARTISVENIQRVVSEYFRIPLKELIGPKRTRIYARPRQLAMGLARELTGDSFPEIGMAFGGRDHSTVMHACEKVQSLKQEDPIFNEDYKNLLRLLQSLEHHHHHH”: “not soluble”; “ARIRAPQEATVKEVHDAPAVRGSIIANMLQEHDNPFTLYPYDTNYLIYTQTSDLNKEAIASYDWAENARKDEVKFQLSLAFPLWRGILGPNSVLGASYTQKSWWQLSNSEESSPFRETNYEPQLFLGFATDYRFAGWTLRDVEMGYNHDSNGRSDPTSRSWNRLYTRLMAENGNWLVEVKPWYVVGNTDDNPDITKYMGYYQLKIGYHLGDAVLSAKGQYNWNTGYGGAELGLSYPITKHVRLYTQVYSGYGESLIDYNFNQTRVGVGVMLNDLF”: “soluble”; “SDKEYVGFAALPNQLHRKSVKKGFDFTLMVAGESGLGKSTLINSLFLTNLYEDRQVPEASARLTQTLAIERRGVEIEEGGVKVKLTLVDTPGFGDSVDCSDCWLPVVKFIEEQFEQYLRDESGLNRKNIQDSRVHCCLYFISPFGRGLRPLDVAFLRAVHEKVNIIPVIGKADALMPQETQALKQKIRDQLKEEEIHIYQFPECDSDEDEDFKRQDAEMKESIPFAVVGSCEVVRDGGNRPVRGRRYSWGTVEVENPHHCDFLNLRRMLVQTHLQDLKEVTHDLLYEGYRARCLQSLARPGARDRASRSKLSRQSATEIPLPMLPLADTEKLIREKDEELRRMQEMLEKMQAQMQQSQAQGEQSDAL”: “soluble”.
Consider “GPGSMVQRTLFDFVSKKGDNATTEEVGSKTESGQPSASSRKRTAEDQVANGGASNLTRARVAKENNGALASLIVDPGWEAFLKPLTTSSNFERIEKFLEGELNAGKTILPPREMIFSAFNSTPLDMLKVVLLGQDPYHNVGQAHGLCFSVLPGVPPPPSLINMYKELATDIPGFVAPQHGYLQHWAEQGVLMLNATLTVEIHKANSHATCGWQTFTDDVIRLLSEKHKNPLVFLLWGGFAKRKISLIDRKRHVVIECAHPSPLSAAKWWGSRPFSKCNTALVEKKLSPIDWKLPVCLSKGK”, for which the “soluble on expression in E. coli” value is given as “not soluble”.
With “MNALVAHNSEAWDKKVETGNEWTVAVEQQVIEQAKKGNWDIRVTPMKDVPKDWFPPIKGLKVLCLASGGGQQGPVLAAAGADVTVLDNSEKQLNQDRMIAERDGLTIHTVKGSMDDLSVFNDESFDVIVHPVANVFVENVLPVWKEAYRVLKRNGILISGFVNPVVFLFDTVLEQQGVLKVKHSIPYADPEDLPKHKVKELIENNEALEFGHSLEDQIKGQIDAGFIVTGFYEDKGGFVLDQYIHTYSATRSVKVLEHHHHHH” the entry was “soluble”; with “MPPQPQIMVDLQMEQVMPNPDLKNIARLISQDPGLSGALLKLVNSPFFGLANRITSIQRAVNLLGSRSVINLINAQSIKGEMSDDTIVTLNRFWDTAQDVAMSCLSLAKRIGYESVDEAYALGLFHNCGIPLMLKRFPHYMAVLEEAYAAASDERRVVDTENRVLNTNHAVVGYYTARSWRLPEHVCEAIANHHNALSIFGDESARDTQLKNLLAILKMAEHICGSHRVLGNQPEDHEWNSIGALVLDYVGLTDYDFENLKGSILELGVGQGSY”, “not soluble”.
Next, “AGMELVGWLVDKGITSEKQWIQEDQASYISFNAASNSRSQIKAALDNAGKIMSLTKTAPDYLVGQQPVEDISSNRIYKILELNGYDPQYAASVFLGWATKKFGKRNTIWLFGPATTGKTNIAEAIAHTVPFYGCVNWTNENFPFNDCVDKMVIWWEEGKMTAKVVESAKAILGGSKVRVDQKCKSSAQIDPTPVIVTSNTNMCAVIDGNSTTFEHQQPLQDRMFKFELTRRLDHDFGKVTKQEVKDFFRWAKDHVVEVEHEFYVKKGG”: “soluble”.
In the case of “MGSDKIHHHHHHMKNLLDLTGKLNIYSPKFNRYQTSLMKIDMHRTKLEQKQPHFDAQKRRKKECKNSNTPFVRPKLELPHGHNKLLLHSCCAPCSGEVMEAIHASGIDFTIYFYNPNIHPLKEYLIRKEENIRFAEKWGIPFIDADYDRQNWFDRAKGMEDEPERGIRCTMCFDMRFEKAAQYAHENGFPVFTSCLGISRWKDMNQINGCGHRAAEKYDDVVYWDYNWRKGGGSQRMIEISKRERFYQQEYCGCVYSLRDTNKWREANGRQKIEIGKLYYSADK”, the “soluble on expression in E. coli” value is “not soluble”.
Next, “SNAMKKGTVLNSEISSVISRLGHTDTLVVCDAGLPIPNSTARIDMALTQGVPSFMQVVDVVTREMQVEAAILATEIKQQNPQLHETLLTHLEQLQQHQGNTIKISYTTHEQFKKLTADSQAVIRSGECSPYANVILCAGVTF”: “soluble”.
With “MGDPKAFLNIPRQEAGYRPVSERITDYSQVEQTLNTNSRKLQASRCMDCGVPFCHWACPIGNKQPEWQDALFKGKWKEAYEVLSSTCDFPEFTGRICPALCEKSCVLKLSCDQPVTIRENEAAIVEAAFREGYIQVQHPQRNGKKVAVVGAGPAGLVVANQLNLKGYTVTLFDKDEAAGGLLRFGIPNFKLDKNVIDRRMKILAAEGIQFEMGVEIDVNHLPEGFDAYCICTGTPTARDLSIPGRELKGIHFALEMLAQQNRILEGQTFPKDKLVNAKGKKVLVIGGGDTGSDCIGTSVRQGATSVTQIEIMPKPPVGHNPSTPWPQWPVVFKTTSSHEEGCTRRWCLTSNQFLGKNGKVTGVEVEEVEWTPATDGGRPTMNLTGKKEVIEADMVLLAMGFLKPEQPKFAENVFLAGDAATGASLVVRAMAGGRKAAADIDHYLVKLEHHHHHH” the entry was “soluble”; with “MARPQSKKKQTQIVRRSRPRGRLVPPGRLIAGRDFPEFLQQAVLLSGSLRQAARKLRVSYSTLRGWLGRRCEEPPEAERDLLAEHAAAIRAELDAASEHLATVRGQLDVLEHGE”, “not soluble”; with “HMDIRPRLRIGQINLGGAEDATRELPSIARDLGLDIVLVQEQYSMVGFLAQCGAHPKAGVYIRNRVLPCAVLHHLSSTHITVVHIGGWDLYMVSAYFQYSDPIDPYLHRLGNILDRLRGARVVICADTNAHSPLWHSLPRHYVGRGQEVADRRAKMEDFIGARRLVVHNADGHLPTFSTANGESYVDVTLSTRGVRVSEWRVTNESSSDHRLIVFGVGGGTTGERDEDEEARSDLRPGEP”, “soluble”.
Take “MLRGLRIIAENKIGVLRDLTTIIAEEGGNITFAQTFLIKHGEHEGKALIYFEIEGGDFEKILERVKTFDYIIEIEEEESFERVFGKRVIILGGGALVSQVAIGAISEADRHNLRGERISVDTMPVVGEEEIAEAVKAVSRLHRAEVLVLAGGIMGGKITEEVKKLRKSGIRVISLSMFGSVPDVADVVISDPVMAGTLAVMHISEKAKFDLDRVKGRRI”: the “soluble on expression in E. coli” value was “soluble”.
With “MQPEFWNDKRPAGVPDSLDFAAYRSVVEVFERSCKKFADRPAFSNLGVTLSYAELDRLSAAFAAYLQKQTDLQPGDRIAVQMPNVLQYPIAVFGALRAGLVVVNTNPLYTAREMRHQFKDAGVRALVYLNVFGKLVEEVLPDTRIEYLIEARMGDLLPALKGWLVNSVVKSVKKMVPDYRLPQALPFRQALKQGQGHALQPVRVGLEDVAVLQYTGGTTGVSKGAMLTHGNLVANMLQVHAQLSQLGKDGLPLMKEAQEVMIAPLPLYHIYAFTANCMCMMVSGNHNVLITNPRDIPGFVKELKKWRFSALLGLNTLFVALMEHPGFKDVDFSNLKLTNSGGTALVSATAERWKGVTGCTVVEGYGLTECSPVVTTNPYGEQARLGTVGIPVVGTALKVIDEQGNELPVGERGELCVKGPQVMKGYWQRPEATEEILDAEGWLKTGDIAVIDEDGFVRIVDRKKDLILVSGFNVYPNEIEDVVMAHPKVASCAAVGIPDEKSGEAVKLFVVARDPSLSVEELKAYCKENLTGYKIPRQIVLKDALPMTPVGKILR” the entry was “not soluble”.
